# Target: 14-3-3ζ nhpSer58 with a FLAG tag at its N-terminus (Homo sapiens (Human)) (UniProt P63104)
# Assay: not given
# 14-3-3ζ nhpSer58 with a FLAG tag at its N-terminus (Homo sapiens (Human)), sequence (P63104 whole entry): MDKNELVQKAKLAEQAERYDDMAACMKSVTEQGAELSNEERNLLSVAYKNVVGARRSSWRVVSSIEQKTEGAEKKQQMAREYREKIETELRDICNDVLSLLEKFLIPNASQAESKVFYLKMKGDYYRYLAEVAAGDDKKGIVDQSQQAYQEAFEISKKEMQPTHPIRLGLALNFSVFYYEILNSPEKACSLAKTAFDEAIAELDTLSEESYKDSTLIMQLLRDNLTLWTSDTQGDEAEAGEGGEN
row,Substance,FC
1,exosome complex exonuclease RRP44 [OS = Homo sapiens] (from UniProt Q9Y2L1 1-958),5.09 fold
2,Apoptosis-stimulating of p53 protein 2 [OS = Homo sapiens] (from UniProt Q13625 1-1128),6.29 fold
3,Cyclin-dependent kinase 2-associated protein 1 [OS = Homo sapiens] (from UniProt O14519 1-115),4.42 fold
4,"Cytochrome c oxidase subunit 5A, mitochondrial [OS = Homo sapiens] (from UniProt P20674 42-150)",0.223 fold
5,Cleavage stimulation factor subunit 3 [OS = Homo sapiens] (from UniProt Q12996 2-717),8.68 fold
6,striatin [OS = Homo sapiens] (from UniProt O43815 1-780),4.33 fold
7,Annexin A2 [OS = Homo sapiens] (from UniProt P07355 2-339),24.6 fold
8,HAUS augmin-like complex subunit 5 [OS = Homo sapiens] (from UniProt O94927 1-633),7.34 fold
9,Intraflagellar transport protein 81 homolog [OS = Homo sapiens] (from UniProt Q8WYA0 2-676),21.9 fold
10,Protein S100-A9 [OS = Homo sapiens] (from UniProt P06702 1-114),4.73 fold
11,"Keratin, type II cytoskeletal 78 [OS = Homo sapiens] (from UniProt Q8N1N4 1-520)",6.98 fold
12,Platelet-activating factor acetylhydrolase IB subunit alpha [OS = Homo sapiens] (from UniProt P43034 1-410),7.47 fold
13,Protein S100-A7 [OS = Homo sapiens] (from UniProt P31151 2-101),64.8 fold
14,Polyadenylate-binding protein 1 [OS = Homo sapiens] (from UniProt P11940 1-636),0.182 fold
15,Translin-associated protein X [OS = Homo sapiens] (from UniProt Q99598 1-290),6.28 fold
16,E3 ubiquitin-protein ligase MYCBP2 [OS = Homo sapiens] (from UniProt O75592 1-4678),0.234 fold
17,Ketosamine-3-kinase [OS = Homo sapiens] (from UniProt Q9HA64 1-309),9.56 fold
18,Desmoglein-1 [OS = Homo sapiens] (from UniProt Q02413 50-1049),7.08 fold
19,opioid growth factor receptor [OS = Homo sapiens] (from UniProt Q9NZT2 1-677),7.06 fold
20,"A-kinase anchor protein 9 [OS = Homo sapiens], Q99996 1-3907",0.0561 fold
21,nuclear pore complex protein Nup98-Nup96 [OS = Homo sapiens] (from UniProt P52948 1-1817),5.93 fold
22,Centrosomal protein of 55 kDa [OS = Homo sapiens] (from UniProt Q53EZ4 1-464),4.5 fold
23,Junction plakoglobin [OS = Homo sapiens] (from UniProt P14923 1-745),4.8 fold
24,Protein cereblon [OS = Homo sapiens] (from UniProt Q96SW2 1-442),8.91 fold
25,Acyl-CoA dehydrogenase family member 10 [OS = Homo sapiens] (from UniProt Q6JQN1 1-1059),4.04 fold

# Further lines, results first:
row,FC,Substance
1,12.7 fold,Talin-1 [OS = Homo sapiens] (from UniProt Q9Y490 1-2541)
2,4.55 fold,F-box only protein 50 [OS = Homo sapiens] (from UniProt Q6ZVX7 1-275)
3,63.1 fold,Melanoma-associated antigen D2 [OS = Homo sapiens] (from UniProt Q9UNF1 2-606)
4,7.95 fold,Exportin-1 [OS = Homo sapiens] (from UniProt O14980 1-1071)
5,36.3 fold,Serpin B4 [OS = Homo sapiens] (from UniProt P48594 1-390)
6,6.86 fold,DNA methyltransferase 1-associated protein 1 [OS = Homo sapiens] (from UniProt Q9NPF5 1-467)
7,9.69 fold,BRCA2-interacting transcriptional repressor EMSY [OS = Homo sapiens] (from UniProt Q7Z589 1-1322)
8,9.02 fold,SAGA-associated factor 29 [OS = Homo sapiens] (from UniProt Q96ES7 1-293)
9,16.3 fold,Intraflagellar transport protein 22 homolog [OS = Homo sapiens] (from UniProt Q9H7X7 1-185)
10,0.165 fold,Neurofibromin [OS = Homo sapiens] (from UniProt P21359 2-2839)
11,6.22 fold,Arginase-1 [OS = Homo sapiens] (from UniProt P05089 1-322)
12,8.89 fold,"Keratin, type I cytoskeletal 13 [OS = Homo sapiens] (from UniProt P13646 1-458)"
13,38.4 fold,Protein disulfide-isomerase A6 [OS = Homo sapiens] (from UniProt Q15084 20-440)
14,6.21 fold,Pre-mRNA-splicing factor ATP-dependent RNA helicase DHX15 [OS = Homo sapiens] (from UniProt O43143 1-795)

# Target: 14-3-3ζ nhpSer58 with a FLAG tag at its N-terminus (Homo sapiens (Human)) (UniProt P63104)
# Assay: pulldown from HEK293 lysate, MS; nhpSer58 bait vs WT bait (reference)
Substance,FC,Log2(FC)
14-3-3 protein zeta/delta [OS = Homo sapiens] (from UniProt P63104 1-245),0.0821 fold,-3.61 log2

# — patent US20240391961A1
